T1: Side-VI (Drosophila, UniProt Q0KI85)
T1 chain: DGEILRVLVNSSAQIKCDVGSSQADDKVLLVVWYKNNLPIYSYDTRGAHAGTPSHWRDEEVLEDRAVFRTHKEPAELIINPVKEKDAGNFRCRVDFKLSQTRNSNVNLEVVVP


Biological target: T1, Side-VI
Experiment: SPR equilibrium, monomer ECD

| Kd [nM] | Binder |
| --- | --- |
| 760 | Beat-Va (protein) LFVTDISVPEIVDFRDNVTLSCSYDMRGHTLNSVKWYKDHEEFFRYSPLTSPIYMTFDVAGLQVLEGKYVCNESSCRLDLSLQGAKSTGLYKCEVSGDAPHFKLADKADNMTVAA |
| 2300 | Beat-Vb (protein) LRVTDINVPQIVDFRDNVTLSCSYDISGHTLNSVKWYKNGKEFFRYSPLTPPTYIPFAVEGVQLIDDGNECNESSCRVELNLLGVKSSGVYRCEVSGDAPHFQLTARDANMTVEAL |
